Measurements reported in US20220306748A1.

How the values were obtained:
[1] = target: human leukocyte antigen-G (HLA-G) recombinant protein (human) (UniProt P17693); test: SPR kinetics, HLA-G as immobilised ligand; comparator panel at the right
[2] = target: CD3ε (CD3 epsilon) recombinant protein (UniProt P07766); test: SPR kinetics, CD3ε as immobilised ligand; comparator panel at the right

| Substance | Kd [1] [nM] | Kd [2] [nM] |
| --- | --- | --- |
| Anti-human HLA-G Antibody (87G) | 8.69 | – |
| Muromonab-CD3 (antibody) | – | 7.68 |
